In patent publication US20150073033A1 (University of Texas, published 2015):

Legend:
endogenous Bub1 = endogenous Bub1 (human, UniProt O43683 1-1085); assay: co-IP, HeLa cells
[1] = target: T1, endogenous IKKβ (U87/EGFR or U251 cells) (human, UniProt O14920 1-756); assay: IP of PKCζ, anti-IKKβ immunoblot, EGF-treated cells
T1 sequence (looked up): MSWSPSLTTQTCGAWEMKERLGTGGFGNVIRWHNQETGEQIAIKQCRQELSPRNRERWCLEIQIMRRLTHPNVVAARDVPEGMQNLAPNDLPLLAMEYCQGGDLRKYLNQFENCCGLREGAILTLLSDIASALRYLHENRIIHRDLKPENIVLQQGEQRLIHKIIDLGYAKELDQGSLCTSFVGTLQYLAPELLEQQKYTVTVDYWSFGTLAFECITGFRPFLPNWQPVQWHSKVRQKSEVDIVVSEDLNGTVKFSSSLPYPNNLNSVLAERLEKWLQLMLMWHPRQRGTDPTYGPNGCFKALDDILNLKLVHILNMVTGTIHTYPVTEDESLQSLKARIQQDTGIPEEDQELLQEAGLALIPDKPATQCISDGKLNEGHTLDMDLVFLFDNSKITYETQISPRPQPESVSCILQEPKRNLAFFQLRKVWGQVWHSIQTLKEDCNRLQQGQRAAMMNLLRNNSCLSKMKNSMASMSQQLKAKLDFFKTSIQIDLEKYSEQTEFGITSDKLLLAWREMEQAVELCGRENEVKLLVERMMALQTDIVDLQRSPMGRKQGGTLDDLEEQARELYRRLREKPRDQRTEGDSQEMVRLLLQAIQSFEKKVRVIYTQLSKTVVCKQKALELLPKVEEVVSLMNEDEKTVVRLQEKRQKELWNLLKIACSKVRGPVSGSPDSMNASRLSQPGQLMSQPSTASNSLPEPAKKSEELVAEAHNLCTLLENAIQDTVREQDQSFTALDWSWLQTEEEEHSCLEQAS

[2] = target: T2, purified recombinant GST-Bub1 (UniProt O43683 1-1085, limits assumed); assay: GST pull-down, purified recombinant proteins
T2 construct: Bacterially purified; not shown: GST
Method: Nuclei were stained with DAPI (blue). […] A GST pull-down assay was performed.

Sequence of endogenous Bub1 (O43683 whole entry): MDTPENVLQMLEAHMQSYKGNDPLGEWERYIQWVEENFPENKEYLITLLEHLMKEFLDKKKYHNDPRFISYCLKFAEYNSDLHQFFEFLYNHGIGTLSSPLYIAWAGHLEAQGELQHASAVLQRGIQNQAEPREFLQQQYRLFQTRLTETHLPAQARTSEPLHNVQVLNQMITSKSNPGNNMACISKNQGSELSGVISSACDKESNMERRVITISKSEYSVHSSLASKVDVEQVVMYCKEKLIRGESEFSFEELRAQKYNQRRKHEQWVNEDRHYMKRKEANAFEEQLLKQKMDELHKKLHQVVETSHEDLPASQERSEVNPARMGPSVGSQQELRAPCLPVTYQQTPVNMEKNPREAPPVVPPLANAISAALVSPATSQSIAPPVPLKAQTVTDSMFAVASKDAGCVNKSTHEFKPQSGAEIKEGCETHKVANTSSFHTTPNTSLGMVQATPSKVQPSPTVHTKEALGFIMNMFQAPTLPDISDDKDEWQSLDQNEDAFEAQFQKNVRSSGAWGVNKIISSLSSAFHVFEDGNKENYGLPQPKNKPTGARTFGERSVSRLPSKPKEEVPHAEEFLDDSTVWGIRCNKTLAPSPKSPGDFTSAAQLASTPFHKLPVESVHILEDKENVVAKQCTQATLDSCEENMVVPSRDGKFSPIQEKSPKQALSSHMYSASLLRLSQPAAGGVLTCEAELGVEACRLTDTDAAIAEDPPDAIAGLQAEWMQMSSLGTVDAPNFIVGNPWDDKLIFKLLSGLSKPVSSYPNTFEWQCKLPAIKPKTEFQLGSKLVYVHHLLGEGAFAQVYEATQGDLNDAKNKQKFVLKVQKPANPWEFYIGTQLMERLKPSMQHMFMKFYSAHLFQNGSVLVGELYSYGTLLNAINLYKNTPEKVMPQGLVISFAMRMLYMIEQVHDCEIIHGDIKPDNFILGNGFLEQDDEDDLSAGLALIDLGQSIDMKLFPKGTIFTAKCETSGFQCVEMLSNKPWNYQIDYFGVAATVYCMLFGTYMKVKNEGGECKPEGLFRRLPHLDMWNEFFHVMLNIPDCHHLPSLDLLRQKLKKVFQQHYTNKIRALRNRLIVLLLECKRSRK
T2 sequence (O43683 whole entry): as above

B1: endogenous PKM1 (enzyme)
chain: not shown
notes: Looked for in Bub3-Bub1 immunoprecipitates
Q: Does B1 bind (endogenous Bub1)?
A: Result: no binding

B2: endogenous PKCζ (enzyme, human, UniProt Q05513 1-592, looked up)
chain: MPSRTGPKMEGSGGRVRLKAHYGGDIFITSVDAATTFEELCEEVRDMCRLHQQHPLTLKWVDSEGDPCTVSSQMELEEAFRLARQCRDEGLIIHVFPSTPEQPGLPCPGEDKSIYRRGARRWRKLYRANGHLFQAKRFNRRAYCGQCSERIWGLARQGYRCINCKLLVHKRCHGLVPLTCRKHMDSVMPSQEPPVDDKNEDADLPSEETDGIAYISSSRKHDSIKDDSEDLKPVIDGMDGIKISQGLGLQDFDLIRVIGRGSYAKVLLVRLKKNDQIYAMKVVKKELVHDDEDIDWVQTEKHVFEQASSNPFLVGLHSCFQTTSRLFLVIEYVNGGDLMFHMQRQRKLPEEHARFYAAEICIALNFLHERGIIYRDLKLDNVLLDADGHIKLTDYGMCKEGLGPGDTTSTFCGTPNYIAPEILRGEEYGFSVDWWALGVLMFEMMAGRSPFDIITDNPDMNTEDYLFQVILEKPIRIPRFLSVKASHVLKGFLNKDPKERLGCRPQTGFSDIKSHAFFRSIDWDLLEKKQALPPFQPQITDDYGLDNFDTQFTSEPVQLTPDDEDAIKRIDQSEFEGFEYINPLLLSTEESV
Q: Does B2 bind [1]?
A: Result: no binding

B3: purified recombinant His-PKM2 (wild type) (enzyme)
chain: not shown
notes: Expressed in bacteria and purified; unphosphorylated; also called WT PKM2; WT His-PKM2
Q: Does B3 bind [2]?
A: Result: no binding
